The values below come from patent US8969081B2, “Caudal motor neuron derived from embryonic stem cells under conditions essentially free of any retinoid” (The Trustees of Columbia University in the City of New York, priority 2008, dated 2015).

The subject of assay [1] is differentiating ES cells / ES-MNs. Put plainly: Rostro-caudal patterning of differentiating ES cells (Hox / positional marker immunostaining). The class given is cell-based, mouse. As to conditions: for Rostro-caudal positional marker expression / segmental identity: EBs supplemented on Day 3, markers examined two to four days later; for Rostro-caudal identity of MNs after FGF2 (Hoxd9): 100 ng/ml on day 3. How it is done:
(§1) Differentiation of cervical level motor neurons from mouse ES cells was performed as previously described (Wichterle et al., 2002). For differentiation of caudal brachial level MNs from ES cells, ES cells were grown in ES cell medium for two days, dissociated and plated into non-adherent tissue culture dishes using ADFNK medium at a density of 20,000 cells/ml. Medium is changed each day but not on Day 3 and Day 4 of differentiation (three and four days after dissociation of ES cells and plating into differentiation medium, respectively). Addition of any factors to differentiating embryonic bodies (EBs) was performed on Day 3. These included: 1 μg/ml Dickopf-1 Dkk1 (R&D Systems), FGF Receptor Inhibitor (PD173074, 100 nM final concentration), FGFb (Recombinant Human, FTF-basic, 120-17, PeproTech), rhGdf11 (R&D Systems, Cat#1958-GD). GDNF (10 ng/ml, R&D Systems) was supplemented on Day 5 of differentiation in selected cultures.
(§2) For immunocytochemical analysis, embryonic bodies (EBs) were dissociated using 0.05% Trypsin-EDTA on Day 6 and plated at low densities on laminin coated coverslips using ADFNB medium supplemented with 10 ng/ml Glial cell-derived neurotrophic factor (GDNF). For quantification of MN subtypes, EBs were collected on Day 6 and dissociated using 0.05 Trypsin-EDTA. Dissociated cells were plated on laminin coated coverslips using ADFNB medium (DMEM/F12, Neurobasal, 1 ml B27 50× supplement and optional 5 ng/ml of GDNF to enhance survival of MN cultures) and fixed with 4% PFA one day later.
(§3) Immunocytochemistry on ES cell-derived MNs and EBs was performed as previously described (Wichterle et al., 2002). Antibodies against the following proteins were used in the analysis during this study: Otx2, Hoxa5, Hoxc8, Hoxc6, Hoxc9, Hoxd9, Hoxd10, Foxp1, Lhx3, Pea3, Scip, NeuN, dsRed, NF.
For each experiment, 10 distinct randomized image fields were taken using a confocal microscope LSM Zeiss Meta 510. Expression of all markers used for quantifications was gated to GFP positive cells, ES cell-derived spinal MNs. Images were analyzed for the expression of the above stated markers in the context of the ES cell-derived caudal brachial MNs. Each quantification is the result of at least three independent experiments (three independent differentiation experiments).
All experiments were performed with HBG3 ES cell line harboring Hb9-GFP transgene (Wichterle et al., 2002) and key experiments were confirmed using a control MM13 ES cell line. Differentiation of HBG3 ES cell line under RA/Hh conditions into rostral cervical MNs was performed as previously described (Wichterle et al., 2002; Wichterle and Peljto, 2008). For production of cervical MNs, ES cells were plated at 50,000 cells/ml in ADFNK differentiation medium [Advanced D-MEM/F-12 (Invitrogen): Neurobasal medium (Invitrogen) (1:1), 10% Knockout Serum Replacement (Invitrogen), […] L-Glutamine (Invitrogen), 0.1 mM β-mercaptoethanol (Sigma), and Pen/Strep (Invitrogen)]. Medium was completely changed on days 1, 2 and of differentiation. EBs were split 1:4 on day 2 of differentiation and the medium was supplemented with 1 μM all-trans retinoic acid (RA, Sigma) and Hh agonist (0.5 μM SAG, Calbiochem or 1 μM HhAg1.3, (Frank-Kamenetsky et al., 2002)). To generate caudal brachial level MNs from ES cells under FGF/Hh conditions, ES cells were plated into non-adherent tissue culture dishes in ADFNK medium (˜20,000 cells/ml). Embryoid bodies (EBs) were split 1:4 on day 2 of differentiation and the medium was changed on days 1, 2 and 5. Selected cultures were supplemented with the following reagents: 10 nM-1 μM RA, 10 nM-1 μM Hh Agonist, 1 μg/ml recombinant mouse Dickkopf-1 (R&D Systems), 50-100 nM FGF/VEGF Receptor Tyrosine Kinase Inhibitor (PD173074, Calbiochem) (Mohammadi et al., 1998), 100-625 ng/ml recombinant human bFGF (PeproTech), 20 ng/ml recombinant human Gdf11/Bmp11 (R&D Systems), 10 ng/ml recombinant rat GDNF (R&D Systems). […]

For assay [2], the system named is ES-MNs. Put plainly: Motor pool identity of ES-MNs (Pea3, Scip) in response to GDNF. The assay is classed as cell-based, mouse. How it is done: as §1, §2, §3
All experiments were performed with HBG3 ES cell line harboring Hb9-GFP transgene (Wichterle et al., 2002) and key experiments were confirmed using a control MM13 ES cell line. Differentiation of HBG3 ES cell line under RA/Hh conditions into rostral cervical MNs was performed as previously described (Wichterle et al., 2002; Wichterle and Peljto, 2008). For production of cervical MNs, ES cells were plated at 50,000 cells/ml in ADFNK differentiation medium [Advanced D-MEM/F-12 (Invitrogen): Neurobasal medium (Invitrogen) (1:1), 10% Knockout Serum Replacement (Invitrogen), […] L-Glutamine (Invitrogen), 0.1 mM β-mercaptoethanol (Sigma), and Pen/Strep (Invitrogen)]. Medium was completely changed on days 1, 2 and of differentiation. EBs were split 1:4 on day 2 of differentiation and the medium was supplemented with 1 μM all-trans retinoic acid (RA, Sigma) and Hh agonist (0.5 μM SAG, Calbiochem or 1 μM HhAg1.3, (Frank-Kamenetsky et al., 2002)). To generate caudal brachial level MNs from ES cells under FGF/Hh conditions, ES cells were plated into non-adherent tissue culture dishes in ADFNK medium (˜20,000 cells/ml). Embryoid bodies (EBs) were split 1:4 on day 2 of differentiation and the medium was changed on days 1, 2 and 5. Selected cultures were supplemented with the following reagents: 10 nM-1 μM RA, 10 nM-1 μM Hh Agonist, 1 μg/ml recombinant mouse Dickkopf-1 (R&D Systems), 50-100 nM FGF/VEGF Receptor Tyrosine Kinase Inhibitor (PD173074, Calbiochem) (Mohammadi et al., 1998), 100-625 ng/ml recombinant human bFGF (PeproTech), 20 ng/ml recombinant human Gdf11/Bmp11 (R&D Systems), 10 ng/ml recombinant rat GDNF (R&D Systems).
For immunocytochemical analysis, EBs were dissociated using 0.05% Trypsin-EDTA (Invitrogen) on day 6 and plated at low density on coverslips (Carolina Biological) first coated with 0.001% solution of poly-1-ornithine (Sigma; diluted in water) and then with mouse laminin ([…] final concentration in PBS; Invitrogen). Cultures were plated and maintained using ADFNB culture medium [Advanced D-MEM/F12:Neurobasal (1:1), 1× B27 supplement (Invitrogen), […] L-Glutamine, and 1× Pen/Strep]. […]

Where [3] appears, read: Example 1, 1 μg/ml on Day 3 of differentiation.

Entries after “also recorded” stand apart in the source; their conditions may differ.

Regarding `CCN(CC)CCCCNc1ncc2cc(-c3cc(OC)cc(OC)c3)c(NC(=O)NC(C)(C)C)nc2n1` [PD173074, reference compound], the “Hoxc8+ cells” value in assay [1] (Example 1, 100 nM on Day 3 of differentiation) is “complete loss of Hoxc8+ cells”. The “Specification of Hoxc8+ ES-MNs” value in assay [1] (Example 2, 50 nM on day 3 of differentiation (FIG. 22H)) is “generation of ES-MNs that expressed Hoxa5 but lacked Hoxc8 expression; also recorded: selectively prevented specification of caudal brachial Hoxc8^+ ES-MNs”.
As for “FGF-2: basic fibroblast growth factor, recombinant human bFGF”, the “Rostro-caudal positional marker expression / segmental identity” value in assay [1] (Example 1) is “induced predominantly thoracic identity marked by Hoxd9 expression”. Moreover, the “Induction of brachial or thoracic markers by FGF-2” value in assay [1] (Example 1, in the presence of RA) is recorded as “not sufficient to induce expression of brachial or thoracic markers”. The “Rostro-caudal identity of MNs after FGF2 (Hoxd9)” value in assay [1] (Example 2, stained day 7, listed as FGF) is reported as “significant increase in Hoxd9 expressing cells”; in assay [1] (Example 2, stained day 7, listed as FGF2) it was “Hoxd9^+ thoracic; also recorded: increase in the number of Hoxd9^+ MNs”. Further, in assay [1] (up to 625 ng/ml FGF2 added to 1 μM RA/Hh differentiation condition), the “Specification of Hoxc8+ ES-MNs by FGF2 added to RA/Hh” value is listed as “did not result in the specification of Hoxc8^+ ES-MNs”.

B1: GDNF: glial cell line-derived neurotrophic factor, recombinant rat GDNF (protein, UniProt Q07731 78-211, looked up)
Glial cell line-derived …: SPDKQAAALPRRERNRQAAAASPENSRGKGRRGQRGKNRGCVLTAIHLNVTDLGLGYETKEELIFRYCSGSCEAAETMYDKILKNLSRSRRLTSDKVGQACCRPVAFDDDLSFLDDSLVYHILRKHSAKRCGCI
As to B1, in assay [2] (GDNF 10 ng/ml on day 5), the “Pea3+ ES-MNs expressing Isl1” value is listed as ~90% and the “Pea3+ ES-MNs expressing Lhx1” value is ~10%. In addition, the “Percentage of Scip+ MNs, presence versus absence of GDNF” value in assay [2] (brachial MNs) is on record as “not significantly different”. Further, the “LMC (FoxP1+) MNs expressing Pea3” value in assay [2] (caudal brachial ES-MNs, 10 ng/ml GDNF on day 5) is ~20%. The “Pea3 expression in cervical (RA/Hh differentiated) MNs treated with GDNF” value in assay [2] (cervical ES-MNs) was “no Pea3 expressing MNs were detected; also recorded: not sufficient to induce Pea3 expression; also recorded: do not acquire expression of Pea3”. The “Scip+ FoxP1+ ES-MNs” value in assay [2] (presence or absence of GDNF) is recorded as ~10%.

B2: Dkk1: Wnt antagonist, recombinant mouse Dickkopf-1 (protein, UniProt O54908 32-272, looked up)
Dickkopf-related protein 1: TLNSVLINSNAIKNLPPPLGGAGGQPGSAVSVAPGVLYEGGNKYQTLDNYQPYPCAEDEECGSDEYCSSPSRGAAGVGGVQICLACRKRRKRCMRHAMCCPGNYCKNGICMPSDHSHFPRGEIEESIIENLGNDHNAAAGDGYPRRTTLTSKIYHTKGQEGSVCLRSSDCAAGLCCARHFWSKICKPVLKEGQVCTKHKRKGSHGLEIFQRCYCGEGLACRIQKDHHQASNSSRLHTCQRH
Turning to B2, in assay [1] (setting [3]), the “Neural specification (NeuN)” value was “did not interfere with neural specification”; the “Otx2 expression (rostral neural identity)” value is reported as “induction of Otx2 expression”; the “Spinal identity (Hoxa5, Hoxc8, Hoxd9, Hoxd10 expression)” value is listed as “lost their spinal identity”. For the same molecule, the “Otx2+ forebrain/midbrain neural cells” value in assay [1] (Example 2, 1 μg/ml on day 2, Otx2 on day 5) is recorded as “appearance of Otx2^+ forebrain/midbrain neural cells”. The “Specification of spinal cells (Hox and MN markers)” value in assay [1] (Example 2, 1 μg/ml on day 2 of differentiation) is recorded as “lacked spinal character; also recorded: prevented specification of spinal cells”.

B3: Gdf11: Growth differentiation factor 11, recombinant human Gdf11/Bmp11 (protein, UniProt O95390 299-407, looked up)
Growth/differentiation factor …: NLGLDCDEHSSESRCCRYPLTVDFEAFGWDWIIAPKRYKANYCSGQCEYMFMQKYPHTHLVQQANPRGSAGPCCTPTKMSPINMLYFNDKQQIIYGKIPGMVVDRCGCS
In the case of B3, the “Rostro-caudal positional marker expression / segmental identity” value in assay [1] (Example 1) is recorded as “emergence of even more caudal Hoxd10 positive lumbar nerve cells”. In assay [1] (Example 2, 20 ng/ml on day 3, stained day 7), the “Rostro-caudal identity of MNs after Gdf11 (Hoxd10)” value is listed as “Hoxd10^+ lumbar; also recorded: specification of MNs expressing Hoxd10; also recorded: significant increase in Hoxd10 expressing ES-MNs”.
